What all share (assay): purified protein
Holding throughout (format): biochemical, Sulfolobus acidocaldarius

Substrate in data set [1]: NC(=O)C1=CN([C@@H]2O[C@H](COP(=O)(O)OP(=O)(O)OC[C@H]3O[C@@H](n4cnc5c(N)ncnc54)[C@H](O)[C@@H]3O)[C@@H](O)[C@H]2O)C=CC1
The following applies: 5 mM 2S-AL (saturating), 10 mM MgSO4, 100 mM phosphate pH 8.0, 25 °C, varied: cofactor.

Substrate in data set [2]: CC(=O)[C@](C)(O)C(=O)O
The following applies: 0.22 mM NADPH, 10 mM MgSO4, 100 mM phosphate pH 8.0, 25 °C, racemic 2-acetolactate used, concentration counted as the S enantiomer.

Substrate in data set [3]: NC(=O)C1=CN([C@@H]2O[C@H](COP(=O)(O)OP(=O)(O)OC[C@H]3O[C@@H](n4cnc5c(N)ncnc54)[C@H](OP(=O)(O)O)[C@@H]3O)[C@@H](O)[C@H]2O)C=CC1
The following applies: 5 mM 2S-AL (saturating), 10 mM MgSO4, 100 mM phosphate pH 8.0, 25 °C, varied: cofactor.

B1: Sac-KARI (Sulfolobus acidocaldarius DSM 639) (protein)
chain: MAKIYTDKDVSLDVIKEKRVAVLGYGSQGRAWALNLRDSGIKVSVGLEREGNSWKQAENDGFKPLRTEEAVRNSDIIIFLLPDMIQRTVYLERVKPYLKEGMDLVFAHGFNIHYRLIEPPSNVDVYMIAPKAPGPIVREYFAKGGGVPALVATYQDHSGKALQKALAVAKAIGATRAGVIETTFKEETETDLFGEQVDLVGGVMQLMRYAFQTLVEAGYQPEVAYFETINEMKLIVDLVYEKGFSGMLTAVSDTAKYGGMTVGKMVIDESVKERMKKALDNIRSGKFAEKWVEEYGKGANTIKEGMKEVDNSTEEKVGRSLRDIILRGKPKS
notes: pET-21a NdeI/XhoI, His-tag retained; E. coli BL21(DE3); heat step, Ni-NTA, gel filtration; homodimer ~70 kDa (theoretical ~74 kDa); beta2-alphaB loop LEREGNS; R49, S53, D191, E195, E227, E231
As to B1, in “purified protein [1]”, the Km came to 6.0 ± 0.8 µM, the kcat was found to be 0.056 ± 0.001 s⁻¹ and the kcat/Km is 9500 ± 1300 M⁻¹ s⁻¹. For the same protein, in the data set “purified protein [2]”, the Km was 140 ± 6 µM, the turnover number (kcat) was found to be 0.068 ± 0.001 s⁻¹ and the specificity constant (kcat/Km) turned out to be 490 ± 20 M⁻¹ s⁻¹. Moreover, in the data set “purified protein [3]”, the Km was 0.4 ± 0.2 µM, the kcat amounted to 0.064 ± 0.001 s⁻¹ and the catalytic efficiency (kcat/Km) was 186000 ± 80500 M⁻¹ s⁻¹.

By Km is commonly meant the substrate concentration at which the rate is half of its maximum. As usually defined, the kcat is the maximal rate divided by the concentration of active sites. What is called kcat/Km is the second-order rate constant that governs catalysis at low substrate concentration.

Source of the values: publication PMC5940873, “NADH/NADPH bi-cofactor-utilizing and thermoactive ketol-acid reductoisomerase from Sulfolobus acidocaldarius” (Scientific Reports, 2018).
